Laboratory results published in paper PMC3273813 (Nucleic Acids Research, 2011).

Target: T1, PfSir2A (Plasmodium falciparum Sir2), GST fusion (Plasmodium falciparum, UniProt Q8IE47 1-273)
T1 sequence (looked up): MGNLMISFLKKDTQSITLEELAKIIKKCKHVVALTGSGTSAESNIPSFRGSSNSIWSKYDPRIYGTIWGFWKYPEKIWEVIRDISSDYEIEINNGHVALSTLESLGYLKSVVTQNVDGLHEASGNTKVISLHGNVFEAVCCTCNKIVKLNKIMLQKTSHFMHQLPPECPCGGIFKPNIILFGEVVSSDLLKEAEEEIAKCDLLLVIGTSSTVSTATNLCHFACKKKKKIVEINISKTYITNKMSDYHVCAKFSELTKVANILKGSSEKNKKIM
Experiment: pull-down

B1: PfAlba3 (Plasmodium falciparum Alba 3), His-tag fusion protein (natural protein, UniProt Q8IJX8 1-107, looked up)
chain: MASTEEVSQERSENSIQVSMTKKPTFYARIGKRMFTGNEEKNPFDEVIITGLGNATKIAIGAASIMEKEDIGQIVKVQTAYFSSDRINRRIPKITIVLKKHPDFVAN
- binding result: binds
